This passage reports Kd results from publication PMC6726835 (Cancer Science, 2019).

Sequences and labels used below:
B1: 89Zr-DFO-scFv H2a064 (scFv, V domains shown)
VH: QVQLVQSGGGLVQPGRSLRLSCAASGFTFDDYAMHWVRQAPGKGLEWVSGISWNSGSIGYADSVKGRFTISRDNAKNSLYLQMNSLRAEDTALYYCAKDIGSSGWYGAFDIWGQGTTVTVSS
VL: SYELTQPPSVSVSPGQTARITCSGDALPKHYASWYQQKPGQAPVLLIYKDTERPSGIPERFSGSSSGTTVTLTISGVQAEDEADYYCQSADSSVTVVFGGGTKLTVL
B2: Antihuman MSLN His-Tag scFv clone H2a064 (scFv, V domains shown)
VH: B1 VH
VL: B1 VL
B3: DFO-conjugated His-Tag scFv clone H2a064 (scFv, V domains shown)
VH: B1 VH
VL: B1 VL
B4: Antihuman MSLN His-Tag scFv clone H1a050 (scFv, V domains shown)
VH: EVQLVQSGGGLVQPDRSLRLSCAASGFTFDDYAMHWVRQAPGKGLEWVSGISWNSGSIGYADSVKGRFTISRDNAKNSLYLQMNSLRAEDTALYYCAKDLGSYYGSGSGMDVWGQGTTVTVSS
VL: SYELTQPPSVSVSPGQTARITCSGNALPKQYAYWYQQKPGQAPVLMIYKDSERPSGIPERFSGSSSGTTVTLTISGVQAEDEADYYCQSADSSHTYKVFGGGTKLTVL
B5: DFO-conjugated His-Tag scFv clone H1a050 (scFv, V domains shown)
VH: B4 VH
VL: B4 VL
B6: 89Zr-DFO-scFv H1a050 (scFv, V domains shown)
VH: B4 VH
VL: B4 VL

The target of the assay is Recombinant soluble form (amino acids 297-580) of human mesothelin (r-MSLN) (Homo sapiens, UniProt Q13421). The experiment in a line: BLI.
For B1, the Kd came to 0.0782 µM. The result for B2 reads 0.0596 µM; that for B3, 0.114 µM.

In the case of B4, the Kd turned out to be 0.00468 µM. For B5, the Kd turned out to be 0.00338 µM. The result for B6 reads 0.0462 µM.
